Assay results from publication PMC5612032.

Biological target: Amyloid-β peptide Aβ(1-42)
Assay: NMR titration; 5 μM soluble pEAβ(3-42), 5% Aβ(1-42) fibrils added directly; decrease of the NMR signal of soluble pEAβ(3-42) within ca. 10 min; 10 mM sodium phosphate pH 7.4, 37 °C

Q: What does the source list for “Pyroglutamate-modified amyloid-β pEAβ(3-42) (peptide)”?
A: decrease in NMR signal intensity of soluble pEAβ(3-42): 50%; stoichiometry N (pEAβ(3-42) : Aβ(1-42) in fibrils): 10
